Laboratory results: patent publication US6936708, “Expression of Alfin 1 and methods for producing transgenic plants having increased root growth and root specific gene activation” (Arizona Board of Regents, acting for and on behalf of …)

T1: Alfin1 (Medicago sativa, UniProt Q40359 Q40359:1-257)
T1 sequence: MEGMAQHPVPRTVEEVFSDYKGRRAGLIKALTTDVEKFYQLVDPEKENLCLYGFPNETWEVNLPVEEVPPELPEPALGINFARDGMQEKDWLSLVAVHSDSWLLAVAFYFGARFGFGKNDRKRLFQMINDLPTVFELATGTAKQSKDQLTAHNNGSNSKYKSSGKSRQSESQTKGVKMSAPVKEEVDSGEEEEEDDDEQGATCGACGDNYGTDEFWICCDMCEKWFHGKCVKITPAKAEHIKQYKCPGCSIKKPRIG

B1: Alfin1 binding sequence SEQ 8 (dsDNA)
DNA 1: GACGGCAGAAGGGAGAAACGTGGAGAATC
DNA 2: GATTCTCCACGTTTCTCCCTTCTGCCGTC
B2: Alfin1 binding sequence SEQ 4 (dsDNA)
DNA 1: GACGCAAAGGGGGTGGGGACGGCGCTTTT
DNA 2: AAAAGCGCCGTCCCCACCCCCTTTGCGTC
B3: Alfin1 binding sequence SEQ 6 (dsDNA)
DNA 1: GACGGGTAGGGTGTGGGGGGTGTTTTATT
DNA 2: AATAAAACACCCCCCACACCCTACCCGTC
B4: Alfin1 binding sequence SEQ 10 (dsDNA)
DNA 1: GACGAAGGAAGGACGGCAGCGTGTTGC
DNA 2: GCAACACGCTGCCGTCCTTCCTTCGTC
B5: Alfin1 binding sequence SEQ 9 (dsDNA)
DNA 1: GACGGCGGGAAGGAGTGTGGTAGAGAGCC
DNA 2: GGCTCTCTACCACACTCCTTCCCGCCGTC
B6: Alfin1 binding sequence SEQ 7 (dsDNA)
DNA 1: GACGGGGATAGGTGAGGTGGAGGGACAAT
DNA 2: ATTGTCCCTCCACCTCACCTATCCCCGTC
B7: Alfin1 binding sequence SEQ 5 (dsDNA)
DNA 1: GACGCAAAGGGGGTGGGGACGGCGCTTTT
DNA 2: AAAAGCGCCGTCCCCACCCCCTTTGCGTC

target: T1, Alfin1; assay: DNA sequence that binds Alfin1 in vitro
From the text: (§1) To identify DNA sequences that are recognized by Alfin1 protein, the purified Alfin1 protein was used in the "random DNA binding" assay (See: Rauscher III F. J., Morris J. F., Tournay O. E., Cook D. M., Curran T. *Binding of the Wilm's tumor locus* zinc finger protein to the EGR-1 consensus sequence. Science, 1990; 250, 1259–1262) and the bound DNA purified by four rounds of PCR amplification and binding, followed by cloning of the isolated sequences.

Binding result, binds:
B1, B2, B3, B4, B5, B6

target: T1, Alfin1; assay: DNA sequence that binds Alfin1 in vitro; listed identical to SEQ 4
From the text: as §1

Binding result, binds:
B7
